# Assay results: FireProtDB (doi:10.1021/bi982209j)
# “And” between values parts separate entries of the source, which are not always exact repeats. Equal entries are not always repeated.
# Conditions: Equus caballus; pH 7; 10 °C; GdnHCl; Fluorescence; Imidazole 50 mM
# Chain of Cytochrome c wild type, P00004 (P00004 whole entry): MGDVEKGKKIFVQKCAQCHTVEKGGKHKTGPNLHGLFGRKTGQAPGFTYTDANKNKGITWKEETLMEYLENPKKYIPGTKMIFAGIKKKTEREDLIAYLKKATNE
substance,measurement,value
"Cytochrome c wild type, P00004",denaturant m value,2.7 kcal/mol/M
same,unfolding free energy,8.1 kcal/mol and 7.8 kcal/mol
